Reference: PMC4829425

Tests used:
[1] = biological target: VEGFR-2 EC+TM-(GGS)5-YFP or -mCherry (human) (UniProt P35968)
[2] = biological target: full length wild-type human VEGFR-2 (human) (UniProt P35968)
[3] = biological target: VEGFR-2 EC(C482R)+TM(N762I-V769I-G770I)-(GGS)5-YFP or -mCherry (human) (UniProt P35968); assay: FRET or BRET; QI-FRET between YFP- and mCherry-tagged copies in single plasma membrane-derived vesicles of co-transfected CHO cells, no ligand; monomer-dimer equilibrium model, dimer to monomers; two-dimensional concentrations (receptors per square micron)
[4] = biological target: VEGFR-2 EC(C482R)+TM-(GGS)5-YFP or -mCherry (human) (UniProt P35968); assay: as above
[5] = biological target: VEGFR-2 EC(C482R)+TM-(GGS)5-YFP or -mCherry (human) (UniProt P35968); assay: FRET or BRET; QI-FRET in CHO plasma membrane-derived vesicles with 3 ug/ml VEGF-A121, 1 hr at room temperature
[6] = biological target: VEGFR-2 EC+TM(E764I-T771I-F778I)-(GGS)5-YFP or -mCherry (human) (UniProt P35968); assay: FRET or BRET; QI-FRET between YFP- and mCherry-tagged copies in single plasma membrane-derived vesicles of co-transfected CHO cells, no ligand; monomer-dimer equilibrium model, dimer to monomers; two-dimensional concentrations (receptors per square micron)
[7] = biological target: VEGFR-2 EC+TM(E764I-T771I-F778I)-(GGS)5-YFP or -mCherry (human) (UniProt P35968); assay: FRET or BRET; QI-FRET in CHO plasma membrane-derived vesicles with 3 ug/ml VEGF-A121, 1 hr at room temperature
[8] = biological target: VEGFR-2 EC+TM(N762I-V769I-G770I)-(GGS)5-YFP or -mCherry (human) (UniProt P35968); assay: as above
[9] = biological target: VEGFR-2 EC+TM-(GGS)5-YFP or -mCherry (human) (UniProt P35968); assay: FRET or BRET; QI-FRET in CHO plasma membrane-derived vesicles with 3 ug/ml VEGF-D, 1 hr at room temperature
[10] = biological target: VEGFR-2 EC+TM-(GGS)5-YFP or -mCherry (human) (UniProt P35968); assay: FRET or BRET; QI-FRET in CHO plasma membrane-derived vesicles with 3 ug/ml VEGF-E, 1 hr at room temperature
[11] = biological target: VEGFR-2 EC+TM-(GGS)5-YFP or -mCherry (human) (UniProt P35968); assay: FRET or BRET; QI-FRET in CHO plasma membrane-derived vesicles with 3 ug/ml VEGF-A165b, 1 hr at room temperature
[12] = biological target: VEGFR-2 EC+TM-(GGS)5-YFP or -mCherry (human) (UniProt P35968); assay: FRET or BRET; QI-FRET in CHO plasma membrane-derived vesicles with 3 ug/ml VEGF-A165a, 1 hr at room temperature
[13] = biological target: VEGFR-2 EC+TM-(GGS)5-YFP or -mCherry (human) (UniProt P35968); assay: FRET or BRET; QI-FRET in CHO plasma membrane-derived vesicles with 3 ug/ml VEGF-A121, 1 hr at room temperature
[14] = biological target: VEGFR-2 EC+TM-(GGS)5-YFP or -mCherry (human) (UniProt P35968); assay: FRET or BRET; QI-FRET in CHO plasma membrane-derived vesicles with 3 ug/ml VEGF-C, 1 hr at room temperature

For VEGF-E (ligand), the Intrinsic FRET of the EC+TM dimer (YFP/mCherry) with 3 ug/ml ligand; 0.61 without ligand [1] was 0.44 and the phosphorylation of full-length VEGFR-2 (Tyr 1175, Western blot) with 3 ug/ml ligand against no ligand [2] was under 10 fold.
Work on “VEGFR-2 EC(C482R)+TM(N762I-V769I-G770I)-(GGS)5-YFP or -mCherry (from UniProt P35968 20-1356) (domain or fragment)” yielded a percent dimer [3] of 100%.
With “VEGFR-2 EC(C482R)+TM-(GGS)5-YFP or -mCherry (from UniProt P35968 20-1356) (domain or fragment)” the percent dimer [4] was 100% and the percent dimer [5] was 100%.
“VEGFR-2 EC+TM(E764I-T771I-F778I)-(GGS)5-YFP or -mCherry (from UniProt P35968 20-1356) (domain or fragment)” was tested, and the percent dimer [6] was 100% and the percent dimer [7] was 100%.
“VEGFR-2 EC+TM(N762I-V769I-G770I)-(GGS)5-YFP or -mCherry (from UniProt P35968 20-1356) (domain or fragment)” showed a percent dimer [8] of 100%.
In the case of “VEGFR-2 EC+TM-(GGS)5-YFP or -mCherry (from UniProt P35968 20-1356) (domain or fragment)”, the percent dimer [9] is reported as 100%, the percent dimer [10] is reported as 100% and the percent dimer [11] is reported as 100%. For the same substance, the percent dimer [12] was 100%, the percent dimer [13] was 100% and the percent dimer [14] was 100%.
“human VEGF-C (from UniProt P49767 112-227) (ligand)” was tested, and the Intrinsic FRET of the EC+TM dimer (YFP/mCherry) with 3 ug/ml ligand; 0.61 without ligand [1] was 0.45 and the phosphorylation of full-length VEGFR-2 (Tyr 1175, Western blot) with 3 ug/ml ligand against no ligand [2] was under 10 fold.
Substance “human VEGF-D (from UniProt O43915 89-205) (ligand)” has an Intrinsic FRET of the EC+TM dimer (YFP/mCherry) with 3 ug/ml ligand; 0.61 without ligand [1] of 0.43 and a phosphorylation of full-length VEGFR-2 (Tyr 1175, Western blot) with 3 ug/ml ligand against no ligand [2] of under 10 fold.
